Measurements from the supplement of paper PMC10567573.

B1: SLC35F2 (parent)
chain: FVAFALCMFCLYSFMPLVIKVTSA
B2: KCNA4 (parent)
chain: YQLGEEALLKFREDEGFVREEEDR

Variants of: B1
Assay: protein stability index of a GFP-peptide fusion (GPS, HEK-293T) (PSI 1-6); higher = more stable
Details: c terminus: a fixed tail appended
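Also: lentivirally expressed fusions sorted by FACS into six bins by GFP to DsRed ratio, PSI derived from sequencing read proportions per bin multiplied by bin number.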

Protein stability index, by site and new letter:
S23: P 2.96 | I 2.45 | G 3.19 | Y 2.03 | K 2 | T 2.71 | L 2.89 | D 2.85 | E 2.49 | Q 2.39 | W 2.54 | F 3.51 | R 2.78
A24: C 1.31 | I 2.65 | H 3.79 | E 2.42 | W 3.16 | N 2.63 | K 2.04 | R 1.84 | P 3.3 | T 3.11 | M 2.66 | D 2.65 | V 3.15 | S 2.61 | L 3.27

Variants of: B2
Assay: as above
Details: c terminus: a fixed tail appended

Protein stability index: each site, then its substitutions
E15: S 4.09 | C 3.86 | F 3.83 | I 3.83 | K 4.16 | N 4.42 | R 4.15 | G 4.42 | P 3.99 | T 3.73
A7: R 4.62 | Q 4.1 | D 4.23 | I 3.99 | C 4.89 | M 4.14 | K 5.36 | P 4.59 | N 4.82 | W 1.48 | L 4.8
G16: I 4.61 | H 4.8 | W 4.12 | V 4.5 | R 4.08 | S 4.75 | L 4.85 | F 4.31 | M 4.48 | P 4.62 | T 4.58 | Q 4.73 | D 5.21
V18: I 4.5 | F 4.36 | Y 4.63 | W 3.94 | R 4.04 | C 4.53 | E 4.67 | P 4.63 | L 4.44 | A 4.16 | S 4.32 | H 4.36 | D 4.83 | Q 4.78 | T 4.54 | K 4.13 | G 4.43
L9: Y 5.09 | M 4.84 | W 4.01 | S 5.05 | E 5.37 | K 4.57 | N 4.17 | H 4.96 | P 5.09 | I 5 | C 4.92 | Q 4.9 | F 4.36 | D 5.87 | A 4.88
Q2: V 4.21 | H 2.94 | W 4.19 | D 5.62 | Y 4.31 | T 5.31 | S 5.61 | A 5.36 | G 5.23 | I 4.43 | C 4.91 | K 5.7 | N 5.23 | M 4.79 | L 4.24
F11: K 5.48 | C 4.63 | I 5.12 | V 5.35 | W 4.21 | H 5.21 | T 5.27 | D 5.83 | Q 5.1 | P 5.57
F17: T 4.5 | P 4.9 | N 4.68 | H 4.71 | E 4.79 | R 4.13 | Y 4.86 | S 4.56 | M 3.69 | D 4.81 | L 4.61 | I 4.3
R24: A 4.69 | P 5.16 | K 4.66 | H 4.83 | W 4.53 | T 4.71 | C 4.21 | G 4.79 | M 4.88 | Y 4.42 | F 4.27 | N 4.72 | I 4.6
R12: G 5.08 | T 3.98 | A 4.41 | C 3.02 | H 4.75 | N 5.17 | I 4.15 | P 5.62 | W 2.34 | L 4.4 | Q 4.59 | Y 4.59 | K 4.92 | M 4.06
D23: I 3.88 | C 4.48 | V 3.7 | P 3.82 | N 4.05 | M 3.76 | S 4.62 | Q 4.04 | T 4.11 | H 3.94 | G 3.88 | R 4.39 | Y 4.46 | K 4.45
Y1: C 5.21 | P 5.63 | M 5.47 | T 5.57 | E 5.74 | H 5.47 | D 5.79 | A 5.7 | I 5.3
R19: V 4.59 | T 4.65 | P 4.62 | G 4.85 | C 4.91 | S 4.22 | Q 4.42 | F 4.87 | L 4.46 | I 4.36 | Y 4.51 | M 4.62 | H 4.77 | A 4.91
E5: F 2.93 | S 4.38 | N 4.22 | R 3.48 | A 3.65 | W 1.63 | V 3.86 | C 4.32 | M 3.37 | L 3.83 | H 3.76 | G 3.87
L8: Q 5.65 | E 5.5 | N 5.5 | W 3.55 | S 5.47 | F 4.43 | V 5.58 | D 5.6 | A 4.93 | G 5.48 | C 4.98 | H 5.62 | M 4.56 | R 5.13 | K 5.04 | Y 5.21
E13: A 3.23 | P 4.22 | V 3.81 | W 2.39 | C 2.42 | N 4.5 | R 4.54 | M 3.84 | F 3.63 | H 3.96 | T 4.43 | L 4.45 | S 3.37 | G 3.71 | Y 4.02
G4: A 5.24 | S 3.81 | T 4.12 | N 4.28 | H 4.8 | D 4.43 | V 5.11 | R 4.56 | Y 4.57 | P 5.03 | K 5.34 | F 4.28
E22: Q 4.25 | N 3.85 | V 4.13 | M 4.92 | I 4.03 | A 4.75 | G 4.23 | T 4.11 | W 4.01 | C 4.32 | R 3.95
D14: W 2.81 | A 3.32 | S 3.56 | R 3.58 | H 3.64 | Y 3.59 | E 4.18 | V 3.39 | L 4.08 | C 4 | G 3.45 | P 3.16 | M 4.27 | T 3.98 | F 3.78
E20: I 3.4 | V 4.14 | M 4.06 | W 3.56 | K 4.13 | H 4.49 | L 3.9 | G 3.93 | D 4.38 | Y 3.71 | P 4.3 | S 4.45 | Q 4.44
L3: V 5.28 | P 5.28 | E 5.67 | N 5.68 | Q 5.62 | W 3.89 | I 5.12 | G 4.53 | Y 5.23 | R 4.75 | S 4.86
E21: A 4.45 | R 3.05 | T 4.38 | F 4.06 | P 4.65 | G 4.43 | N 4 | V 4.29 | M 4.21 | I 4.07 | S 4.71 | Y 4 | L 3.07
E6: I 2.93 | D 4.67 | S 4.67 | V 2.93 | N 4.43 | K 4 | F 2.4 | L 3.32 | T 4.32 | C 3.51
K10: I 3.35 | V 2.88 | H 4.74 | P 5.59 | C 3.37 | S 4.43 | E 5.37 | L 3.1 | G 5.52 | M 3.59 | N 5.07
